Assays:
[1] = molecular target: BG505 IDL trimer (HIV-1 strain BG505 (clade A)); test: cryo-EM structure
[2] = molecular target: BG505 IDL trimer (HIV-1 strain BG505 (clade A)); test: negative-staining electron microscopy
[3] = molecular target: JR-FL IDL trimer (HIV-1 strain JR-FL (clade B)); test: cryo-EM structure
[4] = molecular target: WITO IDL trimer (HIV-1 strain WITO (clade B)); test: cryo-EM structure

Which results are given for BG505 IDL trimer (complex)?
stoichiometry N [1]: 3; stoichiometry N [2]: 3

For JR-FL IDL trimer (complex), which stoichiometry N [3] is on record?
The stoichiometry N was 3.

WITO IDL trimer (complex) was tested. Which stoichiometry N [4] did it give?
Its stoichiometry N is 3.
